The results in this text go back to patent US11472855, “RNA-binding protein” (Panitch Schwarze Belisario & Nadel LLP).

Data set [1] has as its system hPUF_MT(R5:A_13R)3(R6:U_13R)3 Y13R in the R6 repeats. The data set can be described thus: EMSA. The conditions noted are these: 13Y at least 30 times greater.
The test system of data set [2] is hPUF_MT(R5:A_13R)3(R6:G_13R)3 Y13R in the R6:G repeats. The experiment in a line: EMSA. The conditions noted are these: 13Y at least 30 times greater.
In data set [3] the test system is hPUF_MT(R5:G_13R)(R5:G_13Y)2(R6:U_13Y)3 R13Y in the second and third R5 repeats (Homo sapiens). The data set can be described thus: EMSA. Particulars: FIG. 61; Arg>Tyr between G and U; 4 C; construct name in text appears misprinted as A/G version. On the technique in general: Mobility shift assays separate free from complexed probe on a gel.
Data set [4] deals with hPUF_MT(R5:C_13R)3(R6:U_13R)3 Y13R in the R6:U repeats. The data set can be described thus: EMSA.
The test system of data set [5] is hPUF_MT(R5:G_13R)3(R6:U_13R)3 Y13R in the R6:U repeats. The data set can be described thus: EMSA. The conditions noted are these: text inconsistent: number 2 greater but prints Tyr>Arg.
The subject of data set [6] is hPUF_MT(R5:A_13R)3(R6:C_13R)3 Y13R in the R6:C repeats. The experiment in a line: EMSA. The conditions noted are these: 13Y about 3 times greater.
Data set [7] addresses T1, hPUF_MT(R2_N12S,Q16E, R3→R5, R4→R6) (R2 repeat N12S,Q16E).
T1 chain: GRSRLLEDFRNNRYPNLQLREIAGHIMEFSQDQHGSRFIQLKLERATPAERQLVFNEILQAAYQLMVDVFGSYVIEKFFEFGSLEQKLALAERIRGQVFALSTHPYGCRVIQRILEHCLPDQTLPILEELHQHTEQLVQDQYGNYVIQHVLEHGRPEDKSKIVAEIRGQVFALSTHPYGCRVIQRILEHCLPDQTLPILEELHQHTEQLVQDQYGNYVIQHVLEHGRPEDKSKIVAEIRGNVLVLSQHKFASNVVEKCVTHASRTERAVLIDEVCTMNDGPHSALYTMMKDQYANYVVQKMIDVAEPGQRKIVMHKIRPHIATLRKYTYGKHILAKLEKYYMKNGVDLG
The experiment in a line: EMSA; binds G exclusively. Particulars: label: Alexa680 at 5' and 3'.

Data set [8] has as its target T2, hPUF_MT(R2_N12S,Q16R, R3→R5, R4→R6) (R2 repeat N12S,Q16R).
T2 chain: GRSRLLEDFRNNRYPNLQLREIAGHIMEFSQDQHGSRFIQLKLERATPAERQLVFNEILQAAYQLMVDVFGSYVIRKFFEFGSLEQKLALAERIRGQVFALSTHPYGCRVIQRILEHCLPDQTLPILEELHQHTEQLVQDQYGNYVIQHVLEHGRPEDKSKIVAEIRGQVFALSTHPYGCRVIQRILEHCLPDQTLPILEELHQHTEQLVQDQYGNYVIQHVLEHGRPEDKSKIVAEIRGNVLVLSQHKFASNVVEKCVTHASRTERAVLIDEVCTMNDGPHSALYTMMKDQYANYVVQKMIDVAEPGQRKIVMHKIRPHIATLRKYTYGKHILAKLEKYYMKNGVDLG
The experiment in a line: EMSA; binds C exclusively. Particulars: label: Alexa680 at 5' and 3'.

Data set [9] deals with T3, hPUF_MT(1-2-5-6-5-6-5-6-5-6-7-8).
T3 chain: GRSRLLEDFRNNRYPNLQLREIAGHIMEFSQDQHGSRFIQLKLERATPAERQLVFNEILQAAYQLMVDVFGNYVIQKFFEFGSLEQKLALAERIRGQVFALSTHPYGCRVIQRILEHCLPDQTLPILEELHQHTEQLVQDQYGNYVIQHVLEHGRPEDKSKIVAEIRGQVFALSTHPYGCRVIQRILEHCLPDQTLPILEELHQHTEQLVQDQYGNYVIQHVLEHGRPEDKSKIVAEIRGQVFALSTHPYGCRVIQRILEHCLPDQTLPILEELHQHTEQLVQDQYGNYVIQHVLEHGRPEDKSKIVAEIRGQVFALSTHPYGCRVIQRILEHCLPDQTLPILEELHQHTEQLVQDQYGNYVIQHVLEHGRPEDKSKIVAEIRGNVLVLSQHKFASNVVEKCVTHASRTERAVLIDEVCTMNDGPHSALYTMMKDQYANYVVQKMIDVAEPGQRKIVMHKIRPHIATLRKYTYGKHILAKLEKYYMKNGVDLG
The experiment in a line: EMSA; greater than MT(R3→R5, R4→R6). Particulars: label: Alexa680 at 5' and 3'.

Data set [10] has as its target T4, hPUF_MT(R8_N12S,Q16E, R3→R5, R4→R6) (R8 repeat N12S,Q16E).
T4 chain: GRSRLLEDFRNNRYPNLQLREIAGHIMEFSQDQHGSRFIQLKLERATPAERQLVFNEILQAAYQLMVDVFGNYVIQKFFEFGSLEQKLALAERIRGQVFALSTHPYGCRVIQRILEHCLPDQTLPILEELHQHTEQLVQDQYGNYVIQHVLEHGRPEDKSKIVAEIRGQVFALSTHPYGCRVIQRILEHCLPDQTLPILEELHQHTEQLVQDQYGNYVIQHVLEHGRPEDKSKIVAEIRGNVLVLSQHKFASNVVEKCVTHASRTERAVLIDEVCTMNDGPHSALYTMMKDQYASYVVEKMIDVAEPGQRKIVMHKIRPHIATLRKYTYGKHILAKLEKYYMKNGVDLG
The data set can be described thus: EMSA; binds G exclusively. The conditions noted are these: label: Alexa680 at 5' and 3'.

Data set [11] deals with T5, hPUF_MT(R3→R5, R4→R6).
T5 chain: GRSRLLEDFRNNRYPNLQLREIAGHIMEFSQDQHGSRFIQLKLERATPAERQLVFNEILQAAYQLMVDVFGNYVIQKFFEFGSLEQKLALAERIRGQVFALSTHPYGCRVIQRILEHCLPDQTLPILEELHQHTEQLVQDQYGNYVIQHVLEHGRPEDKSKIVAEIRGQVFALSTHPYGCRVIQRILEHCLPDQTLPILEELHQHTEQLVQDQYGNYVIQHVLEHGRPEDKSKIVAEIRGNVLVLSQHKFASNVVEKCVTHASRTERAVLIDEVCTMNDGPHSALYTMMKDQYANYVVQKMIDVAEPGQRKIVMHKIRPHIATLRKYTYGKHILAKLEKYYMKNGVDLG
The data set can be described thus: EMSA; binds U exclusively at R8 position. The conditions noted are these: label: Alexa680 at 5' and 3'.

The target in data set [12] is T5, hPUF_MT(R3→R5, R4→R6). The data set can be described thus: EMSA; binds G exclusively at R7 position. Particulars: label: Alexa680 at 5' and 3'.
Data set [13] has as its target T6, hPUF_MT(R5:C_13R)3(R6:U_13Y)3.
T6 chain: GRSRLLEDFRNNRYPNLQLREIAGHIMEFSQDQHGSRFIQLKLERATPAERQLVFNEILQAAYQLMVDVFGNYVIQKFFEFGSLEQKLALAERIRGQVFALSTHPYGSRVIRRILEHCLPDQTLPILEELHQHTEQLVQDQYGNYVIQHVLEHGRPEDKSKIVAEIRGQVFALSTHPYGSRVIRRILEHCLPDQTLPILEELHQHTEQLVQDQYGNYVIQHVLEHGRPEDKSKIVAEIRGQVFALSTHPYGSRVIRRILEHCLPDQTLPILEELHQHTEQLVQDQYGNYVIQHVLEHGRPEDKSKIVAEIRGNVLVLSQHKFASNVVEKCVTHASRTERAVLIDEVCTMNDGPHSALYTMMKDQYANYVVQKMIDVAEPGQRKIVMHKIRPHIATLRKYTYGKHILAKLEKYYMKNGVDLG
The experiment in a line: EMSA. Particulars: label: Alexa680 at 5' and 3'.

Data set [14] has as its target T7, hPUF_MT(R7_S12N,E16Q, R3→R5, R4→R6) (R7 repeat S12N,E16Q).
T7 chain: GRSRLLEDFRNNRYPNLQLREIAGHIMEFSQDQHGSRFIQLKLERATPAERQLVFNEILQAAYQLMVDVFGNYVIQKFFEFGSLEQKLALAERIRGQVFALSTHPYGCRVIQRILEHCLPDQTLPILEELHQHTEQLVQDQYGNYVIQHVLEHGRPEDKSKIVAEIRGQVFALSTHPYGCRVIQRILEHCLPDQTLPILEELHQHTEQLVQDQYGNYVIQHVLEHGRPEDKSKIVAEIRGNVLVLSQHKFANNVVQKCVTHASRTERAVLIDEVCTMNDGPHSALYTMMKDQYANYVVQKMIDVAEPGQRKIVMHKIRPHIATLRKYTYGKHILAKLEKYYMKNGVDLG
The data set can be described thus: EMSA; binds U exclusively. Particulars: label: Alexa680 at 5' and 3'.

Data set [15] deals with T8, hPUF_MT(R7_E16R, R3→R5, R4→R6) (R7 repeat E16R).
T8 chain: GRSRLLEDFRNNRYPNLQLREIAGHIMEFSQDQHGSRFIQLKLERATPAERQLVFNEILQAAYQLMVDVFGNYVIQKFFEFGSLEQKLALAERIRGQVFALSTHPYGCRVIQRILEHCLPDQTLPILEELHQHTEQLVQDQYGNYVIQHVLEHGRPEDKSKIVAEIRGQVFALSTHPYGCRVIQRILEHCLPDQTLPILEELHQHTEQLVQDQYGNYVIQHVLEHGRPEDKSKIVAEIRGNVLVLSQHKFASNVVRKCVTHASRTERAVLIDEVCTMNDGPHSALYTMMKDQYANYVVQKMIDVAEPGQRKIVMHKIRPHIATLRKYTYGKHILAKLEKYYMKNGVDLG
The experiment in a line: EMSA; binds C and U. Particulars: label: Alexa680 at 5' and 3'.

In data set [16] the target is T9, hPUF_MT(R5:G_13R)3(R6:C_13Y)3.
T9 chain: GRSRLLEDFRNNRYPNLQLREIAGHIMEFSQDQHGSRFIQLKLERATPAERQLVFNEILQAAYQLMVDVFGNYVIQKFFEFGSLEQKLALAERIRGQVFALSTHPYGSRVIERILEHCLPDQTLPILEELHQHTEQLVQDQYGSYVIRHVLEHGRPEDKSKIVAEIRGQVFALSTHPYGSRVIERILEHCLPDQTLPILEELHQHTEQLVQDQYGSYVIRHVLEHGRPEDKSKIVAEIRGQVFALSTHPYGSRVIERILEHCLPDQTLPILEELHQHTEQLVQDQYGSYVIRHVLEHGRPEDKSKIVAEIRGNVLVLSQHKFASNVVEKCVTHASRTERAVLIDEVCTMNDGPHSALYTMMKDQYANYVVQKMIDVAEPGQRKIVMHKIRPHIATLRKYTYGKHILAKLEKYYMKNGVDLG
The experiment in a line: EMSA. The conditions noted are these: label: Alexa680 at 5' and 3'.

On to CCAGAAUUGUAUAUAUAUUCG [OTS-1844], for which the binding signal (fold of 13Y protein) in data set [1] is below 0.033.

For CCAGAAUUGGAGAGAUAUUCG [OTS-2008], the binding signal (fold of 13Y protein) in data set [2] was below 0.033.

“CCAGAAUUGUGUGUGUAUUCG [OTS-2004 (Example 5-6, GU repeat)]”: in data set [3], the binding signal (fold weaker than (R5:G 13R)3(R6:U 13Y)3) was determined as 30. As to CCAGAAUUGUCUCUCUAUUCG [OTS-2006], the binding signal (fold of 13Y protein) in data set [4] was determined as 0.1. Regarding “CCAGAAUUGUGUGUGUAUUCG [OTS-2004 (Example 5-6)]”, in data set [5], the binding signal (fold of R6 13Y protein) is 3. Consider “CCAGAAUUGCACACAUAUUCG [OTS-2004 (Example 5-4)]”, for which, in data set [6], the binding signal (fold of 13Y protein) stood at 0.33. CCAGAAUUGUAUAGAUUCG (ssRNA) [OTS-2024]: the binding result in data set [7] is listed as “binds”; in data set [8] it was “no binding”. As for CCAGAAUUGUAUAUAUAUAUUCG (ssRNA) [OTS-1924], in data set [9], the binding result is recorded as “binds”.

Take CCAGAAUUGUAUACAUUCG (ssRNA) [OTS-2025]: the figures for the binding result in [7] and in data set [8] were “no binding” and “binds”, respectively. Consider CCAGAAUUGUAUAAAUUCG (ssRNA) [OTS-2023], for which the binding result in [7] and in data set [8] was “no binding” in each case. Regarding CCAGAAUGGUAUAUAUUCG (ssRNA) [OTS-2034], the binding result in data set [10] is reported as “binds”; in data set [11] it was “no binding”. Regarding CCAGAAUUAUAUAUAUUCG (ssRNA) [OTS-1754], in [12], the binding result was “no binding”. Take CCAGAAUUGUCUCUCUAUUCG (ssRNA) [OTS-2006]: in data set [13], the binding result is reported as “binds”. On to CCAGAAUUCUAUAUAUUCG (ssRNA) [OTS-2033], for which the results for the binding result in data set [12], in data set [14] and in [15] were “no binding”, “no binding” and “binds”, respectively. As to CCAGAAUUGCGCGCGUAUUCG (ssRNA) [OTS-2007], in data set [16], the binding result is “binds”.
